Measurements as given in paper PMC10786891, “Massively parallel profiling of RNA-targeting CRISPR-Cas13d”.
Residue numbers refer to the chain shown, from its start.

T1: EsCas13d, nuclease-dead (Eubacterium siraeum, UniProt B0MS50, R295A;H300A;R849A;H854A)
T1 sequence: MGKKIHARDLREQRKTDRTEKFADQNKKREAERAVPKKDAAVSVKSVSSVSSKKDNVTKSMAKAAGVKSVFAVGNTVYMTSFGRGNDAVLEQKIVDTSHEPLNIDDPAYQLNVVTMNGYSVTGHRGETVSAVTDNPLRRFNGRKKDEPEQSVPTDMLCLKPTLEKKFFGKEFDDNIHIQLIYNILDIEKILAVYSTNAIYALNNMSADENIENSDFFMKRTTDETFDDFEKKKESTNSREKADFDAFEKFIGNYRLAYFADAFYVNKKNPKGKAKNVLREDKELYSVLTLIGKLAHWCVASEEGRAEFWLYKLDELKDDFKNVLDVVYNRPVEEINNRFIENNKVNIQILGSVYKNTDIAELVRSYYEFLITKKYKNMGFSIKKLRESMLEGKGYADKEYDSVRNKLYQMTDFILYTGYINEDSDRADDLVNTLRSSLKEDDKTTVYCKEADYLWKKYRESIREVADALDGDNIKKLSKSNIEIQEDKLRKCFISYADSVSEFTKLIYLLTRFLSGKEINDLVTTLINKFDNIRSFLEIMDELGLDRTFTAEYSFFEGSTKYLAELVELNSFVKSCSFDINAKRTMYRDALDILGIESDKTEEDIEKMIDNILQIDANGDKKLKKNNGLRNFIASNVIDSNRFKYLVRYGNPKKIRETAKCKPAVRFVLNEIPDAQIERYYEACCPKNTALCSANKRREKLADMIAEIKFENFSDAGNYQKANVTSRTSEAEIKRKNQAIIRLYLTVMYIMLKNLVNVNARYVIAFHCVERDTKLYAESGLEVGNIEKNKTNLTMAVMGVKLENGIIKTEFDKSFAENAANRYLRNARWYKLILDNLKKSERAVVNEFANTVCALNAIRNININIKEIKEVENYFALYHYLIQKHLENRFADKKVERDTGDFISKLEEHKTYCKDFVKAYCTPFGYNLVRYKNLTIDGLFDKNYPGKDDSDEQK

B1: target 2 MT 5'PFS GUG 3'PFS UUC (mixed)
RNA 1: CACCCGUGCAAAAUUGCAGGGGUCUAAAACCUUCUCCAAAUUGUUUCAUCCU
RNA 2: GGGAAUGGAUCCACAUCUACGAAUUCGUGAGGAUGAAACAAUUUGGAGAAGUUCAGAUCGGAAGAGCACACGU
B2: target 2 MT 5'PFS CCU 3'PFS CCC (mixed)
RNA 1: B1 RNA 1
RNA 2: B1 RNA 2 with G27C, U28C, G29U, U52C, U53C
B3: target 2 MT 5'PFS GCC 3'PFS AAA (mixed)
RNA 1: B1 RNA 1
RNA 2: B1 RNA 2 with U28C, G29C, U52A, U53A, C54A
B4: target 2 MT 5'PFS GCC 3'PFS AAC (mixed)
RNA 1: B1 RNA 1
RNA 2: B1 RNA 2 with U28C, G29C, U52A, U53A
B5: target 2 MT 5'PFS GUG 3'PFS AUC (mixed)
RNA 1: B1 RNA 1
RNA 2: B1 RNA 2 with U52A
B6: target 2 MT 5'PFS GAC 3'PFS UCC (mixed)
RNA 1: B1 RNA 1
RNA 2: B1 RNA 2 with U28A, G29C, U53C
B7: target 2 MT 5'PFS UAA 3'PFS AAC (mixed)
RNA 1: B1 RNA 1
RNA 2: B1 RNA 2 with G27U, U28A, G29A, U52A, U53A
B8: target 2 MT 5'PFS GAU 3'PFS UAA (mixed)
RNA 1: B1 RNA 1
RNA 2: B1 RNA 2 with U28A, G29U, U53A, C54A
B9: target 2 MT 5'PFS CAG 3'PFS UAC (mixed)
RNA 1: B1 RNA 1
RNA 2: B1 RNA 2 with G27C, U28A, U53A
B10: target 2 MT 5'PFS UAA 3'PFS AAA (mixed)
RNA 1: B1 RNA 1
RNA 2: B1 RNA 2 with G27U, U28A, G29A, U52A, U53A, C54A
B11: target 2 MT 5'PFS GGU 3'PFS CUU (mixed)
RNA 1: B1 RNA 1
RNA 2: B1 RNA 2 with U28G, G29U, U52C, C54U
B12: target 2 MT 5'PFS GUG 3'PFS AUA (mixed)
RNA 1: B1 RNA 1
RNA 2: B1 RNA 2 with U52A, C54A
B13: target 2 MT 5'PFS GCC 3'PFS AAG (mixed)
RNA 1: B1 RNA 1
RNA 2: B1 RNA 2 with U28C, G29C, U52A, U53A, C54G
B14: target 2 MT 5'PFS AUA 3'PFS CCG (mixed)
RNA 1: B1 RNA 1
RNA 2: B1 RNA 2 with G27A, G29A, U52C, U53C, C54G
B15: target 2 MT 5'PFS GUG 3'PFS AUU (mixed)
RNA 1: B1 RNA 1
RNA 2: B1 RNA 2 with U52A, C54U
B16: target 2 MT 5'PFS GUG 3'PFS AUG (mixed)
RNA 1: B1 RNA 1
RNA 2: B1 RNA 2 with U52A, C54G
B17: target 2 MT 5'PFS UAA 3'PFS AAG (mixed)
RNA 1: B1 RNA 1
RNA 2: B1 RNA 2 with G27U, U28A, G29A, U52A, U53A, C54G
B18: target 2 MT 5'PFS UUU 3'PFS CUC (mixed)
RNA 1: B1 RNA 1
RNA 2: B1 RNA 2 with G27U, G29U, U52C
B19: target 2 MT 5'PFS CUG 3'PFS AGA (mixed)
RNA 1: B1 RNA 1
RNA 2: B1 RNA 2 with G27C, U52A, U53G, C54A
B20: target 2 MT 5'PFS UAA 3'PFS AAU (mixed)
RNA 1: B1 RNA 1
RNA 2: B1 RNA 2 with G27U, U28A, G29A, U52A, U53A, C54U
B21: target 2 MT 5'PFS UUU 3'PFS CUG (mixed)
RNA 1: B1 RNA 1
RNA 2: B1 RNA 2 with G27U, G29U, U52C, C54G
B22: target 2 MT 5'PFS GAG 3'PFS CUU (mixed)
RNA 1: B1 RNA 1
RNA 2: B1 RNA 2 with U28A, U52C, C54U
B23: target 2 MT 5'PFS CGC 3'PFS AGC (mixed)
RNA 1: B1 RNA 1
RNA 2: B1 RNA 2 with G27C, U28G, G29C, U52A, U53G
B24: target 2 MT 5'PFS CGC 3'PFS AGG (mixed)
RNA 1: B1 RNA 1
RNA 2: B1 RNA 2 with G27C, U28G, G29C, U52A, U53G, C54G
B25: target 2 MT 5'PFS GCU 3'PFS UGU (mixed)
RNA 1: B1 RNA 1
RNA 2: B1 RNA 2 with U28C, G29U, U53G, C54U
B26: target 2 MT 5'PFS GAU 3'PFS UAG (mixed)
RNA 1: B1 RNA 1
RNA 2: B1 RNA 2 with U28A, G29U, U53A, C54G
B27: target 2 MT 5'PFS GAU 3'PFS UAC (mixed)
RNA 1: B1 RNA 1
RNA 2: B1 RNA 2 with U28A, G29U, U53A
B28: target 2 MT 5'PFS GAU 3'PFS UAU (mixed)
RNA 1: B1 RNA 1
RNA 2: B1 RNA 2 with U28A, G29U, U53A, C54U
B29: target 2 MT 5'PFS AUG 3'PFS AUG (mixed)
RNA 1: B1 RNA 1
RNA 2: B1 RNA 2 with G27A, U52A, C54G
B30: target 2 MT 5'PFS UUU 3'PFS CUA (mixed)
RNA 1: B1 RNA 1
RNA 2: B1 RNA 2 with G27U, G29U, U52C, C54A
B31: target 2 MT 5'PFS CGA 3'PFS ACU (mixed)
RNA 1: B1 RNA 1
RNA 2: B1 RNA 2 with G27C, U28G, G29A, U52A, U53C, C54U
B32: target 2 MT 5'PFS GCU 3'PFS UGC (mixed)
RNA 1: B1 RNA 1
RNA 2: B1 RNA 2 with U28C, G29U, U53G
B33: target 2 MT 5'PFS CUG 3'PFS AGC (mixed)
RNA 1: B1 RNA 1
RNA 2: B1 RNA 2 with G27C, U52A, U53G
B34: target 2 MT 5'PFS AUA 3'PFS CCA (mixed)
RNA 1: B1 RNA 1
RNA 2: B1 RNA 2 with G27A, G29A, U52C, U53C, C54A
B35: target 1 insA 3' of 13,insG 3' of 7 (mixed)
RNA 1: CACCCGUGCAAAAAUGCAGGGGUCUAAAACUGAGCGGAUAACCUCUCUAUGG
RNA 2: GGGAAUGGAUCCACAUCUACGAAUUCGUACCAUAGAGAGAGUUAUCGCGCUCACCGAGAUCGGAAGAGCACACGU
B36: target 1 complement block 5-10 (mixed)
RNA 1: B35 RNA 1
RNA 2: GGGAAUGGAUCCACAUCUACGAAUUCGUACCAUAGAGAGGUAUAGGCCUCACCGAGAUCGGAAGAGCACACGU
B37: target 1 insA 3' of 10,insG 3' of 6 (mixed)
RNA 1: B35 RNA 1
RNA 2: B35 RNA 2 with A40G, G41U, U43A, G47C, C48G
B38: target 1 insU 3' of 9,insG 3' of 6 (mixed)
RNA 1: B35 RNA 1
RNA 2: B35 RNA 2 with A40G, G41U, U43A, A44U, G47C, C48G

What follows are binders tested against T1, EsCas13d, nuclease-dead (assay: crRNA (strand 1, pre-loaded); Mg2+; 40 mM Tris-HCl pH 7.5, 150 mM NaCl, 6 mM MgCl2, 1 mM DTT, 0.1% Tween-20, 0.2 mg/ml BSA; 25 C; 10 min per concentration, then washed). Conditions: tags: His6-TwinStrep-SUMO cleaved; N-terminal SNAP kept (SNAP-Surface 488); label: 3' end held by stalled T7 RNA polymerase.
For B1, the Kd was 27 ± 4 nM.
B2 was tested, and the Kd was 5.3 ± 2 nM.
Work on B3 yielded a Kd of 11.9 ± 3.4 nM.
B4 showed a Kd of 17 ± 5 nM.
B5 showed a Kd of 10.8 ± 0.8 nM.
B6 was tested, and the Kd was 50 ± 15 nM.
For B7, the Kd was 6.6 ± 1 nM.
With B8 the Kd was 12 ± 4 nM.
In the case of B9, the Kd is reported as 5.3 ± 1 nM.
Work on B10 yielded a Kd of 2.9 ± 0.8 nM.
In the case of B11, the Kd is reported as 16.7 ± 1.3 nM.
Work on B12 yielded a Kd of 11.3 ± 1.5 nM.
B13 gave a Kd of 22 ± 5 nM.
B14 showed a Kd of 8.5 ± 0.8 nM.
B15 showed a Kd of 11.3 ± 0.9 nM.
For B16, the Kd was 13.8 ± 1.3 nM.
B17 showed a Kd of 4.5 ± 0.6 nM.
For B18, the Kd was 8.4 ± 0.9 nM.
B19 showed a Kd of 2.16 ± 0.2 nM.
With B20 the Kd was 4.7 ± 0.6 nM.
Binder B21 has a Kd of 7.7 ± 1 nM.
B22 was tested, and the Kd was 8.9 ± 0.7 nM.
For B23, the Kd was 6.1 ± 1.5 nM.
B24 gave a Kd of 3.4 ± 0.5 nM.
B25 showed a Kd of 17.7 ± 2.7 nM.
B26 was tested, and the Kd was 13.4 ± 2.7 nM.
B27 showed a Kd of 16 ± 3.4 nM.
B28 showed a Kd of 16 ± 4 nM.
B29 gave a Kd of 9.9 ± 1.4 nM.
Binder B30 has a Kd of 16 ± 3.2 nM.
B31 was tested, and the Kd was 17 ± 7 nM.
B32 showed a Kd of 12.9 ± 2.1 nM.
In the case of B33, the Kd is reported as 2.52 ± 0.2 nM.
Work on B34 yielded a Kd of 15.9 ± 2.5 nM.
B35 gave a Kd of 4.48 ± 0.22 nM.
Work on B36 yielded a Kd of 14.5 ± 0.7 nM.
Work on B37 yielded a Kd of 9.9 ± 0.4 nM.
With B38 the Kd was 12.1 ± 1.4 nM.
